Laboratory results taken from US20060121042A1 (AstraZeneca / MedImmune, published 2006).
Where a chain is given by its changes, count along the chain named. Values belong to the binder of their own block, whether it stands above or below them.

What was measured:
hEph A1 = target: T1, hEph A1; assay: ELISA
T1 construct: also called human EphA1; not shown: Fc portion of the probable EphA1-Fc fusion (human IgG1 Fc)
T1 chain: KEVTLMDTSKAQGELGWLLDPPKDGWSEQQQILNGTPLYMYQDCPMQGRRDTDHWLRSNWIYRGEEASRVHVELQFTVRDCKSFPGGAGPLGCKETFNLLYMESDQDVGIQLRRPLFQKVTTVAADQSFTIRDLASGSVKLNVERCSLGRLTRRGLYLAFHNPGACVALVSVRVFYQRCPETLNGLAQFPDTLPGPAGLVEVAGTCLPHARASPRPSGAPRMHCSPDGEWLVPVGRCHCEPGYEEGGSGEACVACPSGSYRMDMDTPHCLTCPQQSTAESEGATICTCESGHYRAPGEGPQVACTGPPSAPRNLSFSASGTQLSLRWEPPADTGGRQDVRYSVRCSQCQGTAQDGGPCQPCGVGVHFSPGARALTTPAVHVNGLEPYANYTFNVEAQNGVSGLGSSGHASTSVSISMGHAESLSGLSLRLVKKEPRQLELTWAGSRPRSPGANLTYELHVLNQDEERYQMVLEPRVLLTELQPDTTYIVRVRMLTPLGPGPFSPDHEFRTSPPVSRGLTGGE

mEph A4 = mEph A4 (mouse, UniProt Q03137); assay: ELISA
rEph A5 = rEph A5 (rat, UniProt P54757); assay: ELISA
mEph A6 = target: T2, mEph A6 (mouse, UniProt Q62413); assay: ELISA
T2 sequence (receptor, looked up): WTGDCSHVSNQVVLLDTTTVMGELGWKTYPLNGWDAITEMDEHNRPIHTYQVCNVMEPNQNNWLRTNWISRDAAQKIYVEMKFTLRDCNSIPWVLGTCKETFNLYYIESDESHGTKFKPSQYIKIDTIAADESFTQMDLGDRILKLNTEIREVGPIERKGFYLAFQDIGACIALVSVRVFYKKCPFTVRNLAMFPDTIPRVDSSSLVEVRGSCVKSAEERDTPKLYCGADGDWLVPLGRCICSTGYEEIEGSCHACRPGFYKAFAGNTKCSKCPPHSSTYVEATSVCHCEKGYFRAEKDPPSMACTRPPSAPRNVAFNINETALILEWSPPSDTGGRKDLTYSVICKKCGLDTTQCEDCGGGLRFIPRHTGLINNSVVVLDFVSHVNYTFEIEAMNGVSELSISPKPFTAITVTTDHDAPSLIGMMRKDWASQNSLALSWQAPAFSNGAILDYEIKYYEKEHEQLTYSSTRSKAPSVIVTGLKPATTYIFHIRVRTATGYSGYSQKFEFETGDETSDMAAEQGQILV

[1] = target: T3, human EphA4 (construct not given) (human, UniProt P54764 20-547, limits assumed); assay: ELISA
T3 construct: also called EphA4 receptor

rrEphB1 = target: T4, rrEphB1 (rat, UniProt P09759); assay: ELISA
T4 sequence (receptor, looked up): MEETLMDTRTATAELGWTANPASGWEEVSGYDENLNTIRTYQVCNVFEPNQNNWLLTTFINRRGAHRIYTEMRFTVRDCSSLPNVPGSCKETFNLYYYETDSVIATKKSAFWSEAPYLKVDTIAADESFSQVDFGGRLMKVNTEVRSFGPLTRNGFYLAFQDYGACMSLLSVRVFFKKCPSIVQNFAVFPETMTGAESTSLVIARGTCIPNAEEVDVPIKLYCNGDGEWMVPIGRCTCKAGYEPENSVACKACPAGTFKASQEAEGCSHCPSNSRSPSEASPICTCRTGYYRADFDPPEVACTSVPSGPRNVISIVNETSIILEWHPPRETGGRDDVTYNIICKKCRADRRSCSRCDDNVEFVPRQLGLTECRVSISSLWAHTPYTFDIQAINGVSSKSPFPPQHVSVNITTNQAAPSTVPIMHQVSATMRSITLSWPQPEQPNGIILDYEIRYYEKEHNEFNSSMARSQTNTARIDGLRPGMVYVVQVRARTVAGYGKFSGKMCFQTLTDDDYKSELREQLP

rmEph B2 = target: T5, rmEph B2 (mouse, UniProt P54763); assay: ELISA
T5 sequence (receptor, looked up): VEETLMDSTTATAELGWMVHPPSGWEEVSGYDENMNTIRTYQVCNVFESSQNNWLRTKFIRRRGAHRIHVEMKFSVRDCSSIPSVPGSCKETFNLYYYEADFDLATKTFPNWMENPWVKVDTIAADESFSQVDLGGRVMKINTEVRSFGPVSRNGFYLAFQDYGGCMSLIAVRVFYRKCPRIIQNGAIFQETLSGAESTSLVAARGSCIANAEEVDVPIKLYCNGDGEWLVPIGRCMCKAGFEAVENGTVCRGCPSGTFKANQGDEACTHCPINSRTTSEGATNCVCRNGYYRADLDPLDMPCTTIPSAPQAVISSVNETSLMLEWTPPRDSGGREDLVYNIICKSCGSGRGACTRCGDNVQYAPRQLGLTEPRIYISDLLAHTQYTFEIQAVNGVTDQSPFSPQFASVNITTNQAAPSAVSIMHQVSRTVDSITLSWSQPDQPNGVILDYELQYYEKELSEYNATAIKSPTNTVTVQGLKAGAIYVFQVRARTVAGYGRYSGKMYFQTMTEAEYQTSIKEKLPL

rmEph B3 = target: T6, rmEph B3 (mouse, UniProt P54754); assay: ELISA
T6 sequence (receptor, looked up): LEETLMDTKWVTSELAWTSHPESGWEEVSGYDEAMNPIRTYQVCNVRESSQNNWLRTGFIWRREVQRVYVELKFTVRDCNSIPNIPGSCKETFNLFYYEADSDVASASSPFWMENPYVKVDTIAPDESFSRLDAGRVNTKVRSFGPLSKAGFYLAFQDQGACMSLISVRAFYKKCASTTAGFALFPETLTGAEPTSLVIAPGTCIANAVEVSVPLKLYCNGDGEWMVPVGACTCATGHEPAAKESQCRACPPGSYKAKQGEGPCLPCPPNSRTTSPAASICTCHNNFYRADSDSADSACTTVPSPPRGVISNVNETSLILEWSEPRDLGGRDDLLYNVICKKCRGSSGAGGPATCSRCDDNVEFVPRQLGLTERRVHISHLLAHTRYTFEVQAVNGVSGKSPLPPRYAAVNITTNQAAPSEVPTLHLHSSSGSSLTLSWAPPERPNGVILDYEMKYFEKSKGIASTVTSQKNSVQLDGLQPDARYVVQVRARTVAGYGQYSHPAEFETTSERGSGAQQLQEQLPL

r murine EphA4 = target: T7, r murine EphA4 (mouse, UniProt Q03137); assay: activity ELISA, Fab on coated antigen
T7 construct: recombinant Fc fusion (R&D Systems); also called rmuEphA4-Fc; mEphA4
Protocol: (§1) More precisely, Nunc Maxisorp plates were coated with the following rEphA proteins: rhuEphAl-Fc, rmuEphA2-Fc, rmuEphA3-Fc, rmuEphA4-Fc, rratEphA5-Fc, rmuEphA6-Fc, rmuEphA7-Fc, rEphA8; all at 0.5 μg/well (all R&D Systems) rhuEphA2-Fc; 0.5 μg/well, and rhuEphA4-His; 0.1 μg/well (both produced at MedImmune, Inc.). Plates were blocked with 3% BSA+0.1% Tween20 for 2 h. […] Incubation with a goat anti-human kappa horseradish peroxydase (HRP) conjugate then followed. HRP activity was detected with TMB substrate and the reaction quenched with 0.2 M H₂SO₄. Plates were read at 450 nm. Data was analyzed by normalizing Fab concentrations to the corresponding activity data (see FIGS. 10B-10H).

r murine EphA7 = target: T8, r murine EphA7 (mouse, UniProt Q61772); assay: activity ELISA, Fab on coated antigen
T8 construct: recombinant Fc fusion (R&D Systems); also called rmuEphA7-Fc; mEphA7
T8 sequence (receptor-Fc fusion, looked up): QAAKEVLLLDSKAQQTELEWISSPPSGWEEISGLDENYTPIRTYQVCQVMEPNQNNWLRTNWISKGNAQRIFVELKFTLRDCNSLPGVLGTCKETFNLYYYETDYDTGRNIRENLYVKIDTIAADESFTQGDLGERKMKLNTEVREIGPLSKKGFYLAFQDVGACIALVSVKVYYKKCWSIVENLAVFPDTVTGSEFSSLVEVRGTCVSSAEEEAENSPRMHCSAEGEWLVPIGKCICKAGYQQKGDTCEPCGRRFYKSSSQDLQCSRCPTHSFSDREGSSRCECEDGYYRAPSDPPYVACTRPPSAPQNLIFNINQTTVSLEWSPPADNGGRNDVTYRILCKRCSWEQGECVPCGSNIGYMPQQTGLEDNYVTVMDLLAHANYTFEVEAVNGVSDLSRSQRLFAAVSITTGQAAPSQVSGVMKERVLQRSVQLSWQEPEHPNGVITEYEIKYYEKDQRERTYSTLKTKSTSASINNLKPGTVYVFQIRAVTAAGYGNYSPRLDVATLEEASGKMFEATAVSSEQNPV
Protocol: as §1

r murine EphA8 [2] = target: T9, r murine EphA8 (mouse, UniProt O09127); assay: activity ELISA, Fab on coated antigen
T9 construct: recombinant (rEphA8, R&D Systems); also called rEphA8
T9 sequence (receptor, looked up): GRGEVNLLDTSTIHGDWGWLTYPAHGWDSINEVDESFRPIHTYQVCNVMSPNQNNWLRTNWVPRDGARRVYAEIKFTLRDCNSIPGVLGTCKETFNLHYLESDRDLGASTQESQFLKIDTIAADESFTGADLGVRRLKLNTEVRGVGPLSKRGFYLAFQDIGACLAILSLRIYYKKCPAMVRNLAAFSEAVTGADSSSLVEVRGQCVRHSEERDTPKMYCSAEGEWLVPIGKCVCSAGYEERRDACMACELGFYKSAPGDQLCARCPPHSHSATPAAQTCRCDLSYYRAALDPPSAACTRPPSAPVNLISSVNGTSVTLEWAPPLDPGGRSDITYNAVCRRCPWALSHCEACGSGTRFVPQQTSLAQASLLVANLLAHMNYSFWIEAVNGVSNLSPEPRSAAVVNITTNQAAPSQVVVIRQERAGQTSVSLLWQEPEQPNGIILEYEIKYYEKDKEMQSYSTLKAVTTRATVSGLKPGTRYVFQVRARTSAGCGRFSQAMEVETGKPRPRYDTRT
Protocol: as §1

r murine EphA8 [3] = target: T10, r murine EphA8 (mouse, UniProt O09127); assay: Activity ELISA, receptor coated on the plate, periplasmic Fab, anti-human kappa-HRP, OD 450 nm
T10 construct: recombinant soluble protein coated on the plate; also called mEphA8; rEphA8
T10 sequence (receptor construct, looked up): T9 sequence (receptor, looked up)

rEph A5, sequence (P54757 27-575 limits assumed): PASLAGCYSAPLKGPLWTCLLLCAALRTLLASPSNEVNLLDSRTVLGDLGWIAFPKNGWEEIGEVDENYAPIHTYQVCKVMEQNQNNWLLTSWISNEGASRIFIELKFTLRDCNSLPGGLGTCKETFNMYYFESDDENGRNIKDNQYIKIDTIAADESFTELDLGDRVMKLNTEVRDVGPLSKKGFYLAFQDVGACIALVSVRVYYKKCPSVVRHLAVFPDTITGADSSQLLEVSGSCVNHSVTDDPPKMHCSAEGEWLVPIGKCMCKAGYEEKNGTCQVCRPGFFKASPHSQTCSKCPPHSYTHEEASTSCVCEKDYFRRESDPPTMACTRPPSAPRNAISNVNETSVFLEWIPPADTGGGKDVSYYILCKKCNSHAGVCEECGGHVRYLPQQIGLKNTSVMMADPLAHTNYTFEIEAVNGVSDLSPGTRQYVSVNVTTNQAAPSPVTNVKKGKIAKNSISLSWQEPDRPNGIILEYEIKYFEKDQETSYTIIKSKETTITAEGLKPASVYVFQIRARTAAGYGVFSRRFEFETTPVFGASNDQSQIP
T3 sequence (P54764 20-547 limits assumed): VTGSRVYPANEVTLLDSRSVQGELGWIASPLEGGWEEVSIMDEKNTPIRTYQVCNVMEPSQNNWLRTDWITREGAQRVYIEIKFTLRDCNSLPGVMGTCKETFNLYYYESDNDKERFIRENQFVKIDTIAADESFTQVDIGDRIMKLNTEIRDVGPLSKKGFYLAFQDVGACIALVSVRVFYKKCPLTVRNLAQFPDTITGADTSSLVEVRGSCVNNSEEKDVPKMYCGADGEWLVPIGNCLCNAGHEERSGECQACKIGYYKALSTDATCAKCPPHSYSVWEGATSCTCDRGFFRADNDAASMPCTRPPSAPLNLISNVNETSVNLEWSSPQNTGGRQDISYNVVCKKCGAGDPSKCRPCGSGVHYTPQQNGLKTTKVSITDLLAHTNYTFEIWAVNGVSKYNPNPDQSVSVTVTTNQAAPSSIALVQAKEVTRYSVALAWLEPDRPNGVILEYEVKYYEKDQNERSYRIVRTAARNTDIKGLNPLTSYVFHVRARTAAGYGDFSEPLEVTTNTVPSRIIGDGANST
mEph A4, sequence (Q03137 20-547 limits assumed): as the sequence (P54764 20-547 limits assumed) above, with P59A, N121S, V124G, R250Q, S251N, T270S, K378R, N406S counted along it
T7 sequence (Q03137 20-547 limits assumed): as the sequence (P54764 20-547 limits assumed) above, with P59A, N121S, V124G, R250Q, S251N, T270S, K378R, N406S counted along it

ELISA O.D. value (hEph A1): 0.784
ELISA O.D. value (mEph A4): 0.358
ELISA O.D. value (rEph A5): 0.717
ELISA O.D. value (mEph A6): 1.43
ELISA O.D. value [1]: 0.887
binding result (rrEphB1): binds
ELISA O.D. value (rmEph B2): 0.581
binding result (rmEph B3): binds
B1: GEA44 11H1 (antibody, V domains shown)
VH: QVQLLQSGAEVKKPGASVKVPCKASGYTFTSYAMSWVRQAPGQGLEWMGWINTNTGNPTYAQGFTGRFVFSLDTSVSTAYLQISSLKAEDTAVYYCARVRLTVYGDGMDVWGQGTLVTVSS
VL: EIVLTQSPATLSVSPGERATLSCRASQSVSSNLAWYQQKPGQAPRLLIYGASTRATGIPDRFSASGSGTDFTLTISRVEPEDFAVYYCQQYGSSWTFGQGTKVEIK
notes: same variable regions as m16

binding result (r murine EphA4): binds
binding result (r murine EphA7): binds
binding result (r murine EphA8 [2]): binds
binding result (r murine EphA8 [3]): binds
B2: 3A12 Fab (affinity optimized combinatorial variant of Fab20) (Fab, V domains shown)
VH: B1 VH with Y32R, L101F
VL: B1 VL with R54W, S93P
